Source: the supplement of paper PMC10567573

B1: CCDC6 (parent)
chain: ASVTIQARAEQEEEFISNTLFKKI

Variants of: B1
Test: protein stability index of a GFP-peptide fusion (GPS, HEK-293T) (PSI 1-6); higher = more stable
Details: c terminus: a fixed tail appended
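Further: lentivirally expressed fusions sorted by FACS into six bins by GFP to DsRed ratio, PSI derived from sequencing read proportions per bin multiplied by bin number.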

First: ACVTIQARAEQEEEFISNTLFKKI [S2C]
Second: ARVTIQARAEQEEEFISNTLFKKI [S2R]
The protein stability index of the first is lower: 2.84 for the first, 3.35 for the second.

Going from AIVTIQARAEQEEEFISNTLFKKI [S2I] to AHVTIQARAEQEEEFISNTLFKKI [S2H], the protein stability index rises from 3.08 to 3.17.

Going from AKVTIQARAEQEEEFISNTLFKKI [S2K] to APVTIQARAEQEEEFISNTLFKKI [S2P], the protein stability index rises from 3.38 to 4.25.

Compared with ASVTIQARAEQEEEFISKTLFKKI [N18K], ASVTIQARAEQEEEFISTTLFKKI [N18T] is lower in protein stability index: 3.87 for the first, 3.75 for the second.

Compared with ASVTIQARAEQEEIFISNTLFKKI [E14I], ASVTIQARAEQEEHFISNTLFKKI [E14H] is higher in protein stability index: 2.22 for the first, 2.7 for the second.

Going from ASVTIQARAEQEEEFISNTLFKFI [K23F] to ASVTIQARAEQEEEFISNTLFKMI [K23M], the protein stability index rises from 2.01 to 2.35.

First: ASVTIQARAEQEEEFISNTLFKHI [K23H]
Second: ASVTIQARAEQEEEFISNTLFKQI [K23Q]
The protein stability index of the first is lower: 3.08 for the first, 3.17 for the second.

Going from ASVTIQARAEQEEEFESNTLFKKI [I16E] to ASVTIQARAEQEEEFQSNTLFKKI [I16Q], the protein stability index rises from 4.53 to 4.66.

Going from ASVTIQARAEQEEEFWSNTLFKKI [I16W] to ASVTIQARAEQEEEFPSNTLFKKI [I16P], the protein stability index rises from 2.92 to 4.35.

Compared with ASVTIQARAEQEEEFLSNTLFKKI [I16L], ASVTIQDRAEQEEEFISNTLFKKI [A7D] is higher in protein stability index: 3.94 for the first, 4.31 for the second.

Going from ASVTIQSRAEQEEEFISNTLFKKI [A7S] to ASVTIQARAEQEEEFISNTLFGKI [K22G], the protein stability index falls from 3.9 to 3.49.

Going from ASVTIQARAEQEEEFISNTLFDKI [K22D] to ASVTIQARAEQEEEFISNTLFFKI [K22F], the protein stability index falls from 3.49 to 1.94.

Going from ASVTIQARAEQEEEFISNTLFRKI [K22R] to ASVTIQARAEQEEEFISNTLFEKI [K22E], the protein stability index rises from 2.92 to 3.74.

Compared with ASVTIQARAEQEEEFISNTLFWKI [K22W], ASVTIQARAEQEEEFISNTEFKKI [L20E] is higher in protein stability index: 2.1 for the first, 4.51 for the second.

First: ASVTIQARAEQEEEFISNTHFKKI [L20H]
Second: ASVTIQARAEQEEEFISNTNFKKI [L20N]
The protein stability index of the first is lower: 4 for the first, 4.42 for the second.

First: ASVTIQARAEQEEEFISNTYFKKI [L20Y]
Second: ASVTIQARAEQEEEFISNTIFKKI [L20I]
The protein stability index of the first is lower: 3.69 for the first, 3.89 for the second.

First: ASVTIQARAPQEEEFISNTLFKKI [E10P]
Second: ASVTIQARAQQEEEFISNTLFKKI [E10Q]
The protein stability index of the first is lower: 2.83 for the first, 3.22 for the second.

First: ASVTIQARAEQEEEFISNALFKKI [T19A]
Second: ASVTIQARAEQEEEFISNMLFKKI [T19M]
The protein stability index of the first is higher: 3.49 for the first, 3.03 for the second.

First: ASVTIQARAEQEEEFISNHLFKKI [T19H]
Second: ASVTIQARAEQEEEFISNRLFKKI [T19R]
The protein stability index of the first is lower: 3.36 for the first, 3.84 for the second.

First: ASVTIQARAEQEEEFISNTLFKKT [I24T]
Second: ASVTIQARAEQEEEFISNTLFKKE [I24E]
The protein stability index of the first is higher: 4.76 for the first, 4.58 for the second.

Compared with ASVTIQAAAEQEEEFISNTLFKKI [R8A], ASVTIQASAEQEEEFISNTLFKKI [R8S] is higher in protein stability index: 3.79 for the first, 4.05 for the second.

Compared with ASVTIQAVAEQEEEFISNTLFKKI [R8V], FSVTIQARAEQEEEFISNTLFKKI [A1F] is lower in protein stability index: 3.31 for the first, 2.08 for the second.

Going from NSVTIQARAEQEEEFISNTLFKKI [A1N] to DSVTIQARAEQEEEFISNTLFKKI [A1D], the protein stability index rises from 3.78 to 4.27.

Compared with QSVTIQARAEQEEEFISNTLFKKI [A1Q], ASVTIQARAEVEEEFISNTLFKKI [Q11V] is lower in protein stability index: 4.09 for the first, 2.56 for the second.

Going from ASVTIQARAENEEEFISNTLFKKI [Q11N] to ASVTIQARAEAEEEFISNTLFKKI [Q11A], the protein stability index falls from 3.71 to 3.52.

Compared with ASVTIQARAEQEEEDISNTLFKKI [F15D], ASVTIQARAEQEEEPISNTLFKKI [F15P] is lower in protein stability index: 4.68 for the first, 4.61 for the second.

Going from ASVTIQARAEQEEEYISNTLFKKI [F15Y] to ASVTIQARAEQEEELISNTLFKKI [F15L], the protein stability index falls from 3.78 to 3.73.

First: ASVTIQARAEQEEEVISNTLFKKI [F15V]
Second: ASVTIQARAEQEEENISNTLFKKI [F15N]
The protein stability index of the first is lower: 4.52 for the first, 4.65 for the second.

Compared with ASVTIQARAEQEEETISNTLFKKI [F15T], ASVTIQARAEQEEEGISNTLFKKI [F15G] is lower in protein stability index: 4.52 for the first, 4.4 for the second.

First: ASVTIQARAEQSEEFISNTLFKKI [E12S]
Second: ASVTIQARAEQREEFISNTLFKKI [E12R]
The protein stability index of the first is higher: 2.95 for the first, 2.7 for the second.

First: ASVTIQARAEQHEEFISNTLFKKI [E12H]
Second: ASVTIQARAEQPEEFISNTLFKKI [E12P]
The protein stability index of the first is lower: 2.83 for the first, 3.03 for the second.

Going from ASVTIQARAEQDEEFISNTLFKKI [E12D] to ASVTIQARAEQEGEFISNTLFKKI [E13G], the protein stability index falls from 3.67 to 3.39.

First: ASVTIQARAEQECEFISNTLFKKI [E13C]
Second: ASVTIQARAEQESEFISNTLFKKI [E13S]
The protein stability index of the first is lower: 3.07 for the first, 3.11 for the second.

Going from ASVTIQARAEQEKEFISNTLFKKI [E13K] to ASVTIQARAEQEEEFIFNTLFKKI [S17F], the protein stability index falls from 3.71 to 2.98.

Compared with ASVTIQARAEQEEEFINNTLFKKI [S17N], ASVTIQARAEQEEEFITNTLFKKI [S17T] is higher in protein stability index: 3.59 for the first, 4.27 for the second.

Compared with ASVTIQARAEQEEEFIANTLFKKI [S17A], ASVTIQARAEQEEEFIYNTLFKKI [S17Y] is lower in protein stability index: 3.64 for the first, 2.9 for the second.

Going from ASVTIQARAEQEEEFIRNTLFKKI [S17R] to ASVTIQARAEQEEEFILNTLFKKI [S17L], the protein stability index rises from 3.26 to 3.35.

Compared with ASVTIQARAEQEEEFIPNTLFKKI [S17P], ASVTDQARAEQEEEFISNTLFKKI [I5D] is higher in protein stability index: 3.92 for the first, 4.84 for the second.

Compared with ASVTPQARAEQEEEFISNTLFKKI [I5P], ASVCIQARAEQEEEFISNTLFKKI [T4C] is lower in protein stability index: 4.7 for the first, 3.52 for the second.

Compared with ASVEIQARAEQEEEFISNTLFKKI [T4E], ASVHIQARAEQEEEFISNTLFKKI [T4H] is lower in protein stability index: 4.41 for the first, 3.61 for the second.

First: ASVGIQARAEQEEEFISNTLFKKI [T4G]
Second: ASVWIQARAEQEEEFISNTLFKKI [T4W]
The protein stability index of the first is higher: 3.63 for the first, 2.06 for the second.

First: ASVTILARAEQEEEFISNTLFKKI [Q6L]
Second: ASVTIYARAEQEEEFISNTLFKKI [Q6Y]
The protein stability index of the first is higher: 2.71 for the first, 1.94 for the second.

First: ASVTISARAEQEEEFISNTLFKKI [Q6S]
Second: ASVTIAARAEQEEEFISNTLFKKI [Q6A]
The protein stability index of the first is lower: 3.35 for the first, 3.47 for the second.

Compared with ASVTIQARTEQEEEFISNTLFKKI [A9T], ASVTIQARCEQEEEFISNTLFKKI [A9C] is lower in protein stability index: 3.68 for the first, 3.23 for the second.

Going from ASVTIQARMEQEEEFISNTLFKKI [A9M] to ASVTIQARGEQEEEFISNTLFKKI [A9G], the protein stability index rises from 3.08 to 3.67.

First: ASVTIQARYEQEEEFISNTLFKKI [A9Y]
Second: ASFTIQARAEQEEEFISNTLFKKI [V3F]
The protein stability index of the first is lower: 2.72 for the first, 3.44 for the second.

Compared with ASVTIQARAEQEEEFISNTLEKKI [F21E], ASVTIQARAEQEEEFISNTLQKKI [F21Q] is higher in protein stability index: 4.93 for the first, 5.01 for the second.
